From the DeepSol protein solubility set

Experiment: soluble on expression in E. coli; label from the status in PepcDB or PDB records

Row | Sequence | soluble on expression in E. coli
1 | SPMANSGPLCCTICHERLEDTHFVQCPSVPSHKFCFPCSRESIKAQGATGEVYCPSGEKCPLVGSNVPWAFMQGEIATIL | soluble
2 | MNGAAQADLWRLVVLNTYGGVYMDIDATLVWPLDKLLGDSQELYIRIKNNTEITNYFIATAPNNPDLQATIEQVVYNVNHYEPSMGVYHSTGPTVLNNILSAKAVIHTQDRKYVCIQGTFTNEHFQYIDKPRGKWLEHHHHHH | not soluble
3 | MRGSHHHHHHGSACELGTMPHIDNDVKLDFKDVLLRPKRSTLKSRSEVDLTRSFSFRNSKQTYSGVPIIAANMDTVGTFEMAKVLCKFSLFTAVHKHYSLVQWQEFAGQNPDCLEHLAASSGTGSSDFEQLEQILEAIPQVKYICLDVANGYSEHFVEFVKDVRKRFPQHTIMAGNVVTGEMVEELILSGADIIKVGIGPGSVCTTRKKTGVGYPQLSAVMECADAAHGLKGHIISDGGCSCPGDVAKAFGAGADFVMLGGMLAGHSESGGELIERDGKKYKLFYGMSSEMAMKKYAGGVAEYRASEGKTVEVPFKGDVEHTIRDILGGIRSTCTYVGAAKLKELSRRTTFIRVTQQVNPIFSEAC | soluble
4 | MGSDKIHHHHHHVVIGFFKKLFNVRDRNEQAKFTGITTAEKRQQTKPQTPVPAIEVTEHQAVESQLDLSALFYSLLFATPSTTTTGIANNLERSVMQNIEQALSSPQSIAENVLKLPSKILELDKKLGDDNIETQELILLIEQDPLLCVEVLKLCNSPAFKRADTDVSSIQQALVQVGRQQLRQFITACLARELIDIKPIYFRRFGAEIWRHSMQVAFLASELASNEQRDSAFLLGLLHDVGKIAIFKMLVDAFYQAEPGEQPNSILFKQVMTTKSLTLSALLARSWQLSQHFETPLTLLANTNIKPTDGMTLLIWKANIISECSMLLQVDKLPQPALAVLLAQVECSEEDFIELHQKLIQF | not soluble
5 | VDSVYRTRSLGVAAEGIPDQYADGEAARVWQLYIGDTRSRTAEYKAWLLGLLRQHGCHRVLDVACGTGVDSIMLVEEGFSVTSVDASDKMLKYALKERWNRRKEPAFDKWVIEEANWLTLDKDVPAGDGFDAVICLGNSFAHLPDSKGDQSEHRLALKNIASMVRPGGLLVIDHRNYDYILSTGCAPPGKNIYYKSDLTKDITTSVLTVNNKAHMVTLDYTVQVPGAGRDGAPGFSKFRLSYYPHCLASFTELVQEAFGGRCQHSVLGDFKPYRPGQAYVPCYFIHVLKKTG | soluble
6 | MAICKVFRNYCKENDIQLHQANFSLSYDTNIPRQTGLSGSSAIVSAALNCLLDFYNVRHLIKVQVRPNIVLSAEKELGIVAGLQDRVAQVYGGLVHMDFSKEHMDKLGHGIYTPMDISLLPPLHLIYAENPSDSGKVHSMVRQRWLDGDEFIISSMKEVGSLAEEGRTALLNKDHSKLVELMNLNFDIRRRMFGDECLGAMNIEMVEVARRVGAASKFTGSGGAVVVFCPEGPSQVKLLEEECRKAGFTLQPVKIAPSCLNDSDIQTL | not soluble
7 | MSLNVVVQKYGGSSVATPERIKNVAQRIKKKVDEGYKVVVVVSAMGKTTDNLIKLAKEISPRPDSRELDMLLATGEQVSAALLSMALKDLGVKAKSLNAFQVKIKTTPHHTSARIVDIDDSVIRENLKDYDVLVVTGFQGVNEHGDLTTLGRGGSDTSAVALAAKLRVPCEIYSDVDGIYTCDPRVHPRAKKLAYITYDEALELTALGAKVLHSRSVEIAKKYGIPIYCASSFTEEEGTMVVERLPEWLEEPVVTGATISHGQIKVSISFLPKDVKYITAIFEEVGKRALNVDMISLVPSNGKVFLSFTILEDHKEDLDEALKEALRDVEGWKSTYEGGFAKLSIVGVGMRTSPGVAARFFEALERAGVTPELVTTSEIKISCLVPEEKAEEALKSVIEEFELEGHHHHHH | soluble
8 | MAFKFKTFAAVGALIGSLALAGCGQDEKDPNHIKVGVIVGAEQQVAEVAQKVAKEKYGLDVELVTFNDYVLPNEALSKGDIDANAFQHKPYLDQQIKDRGYKLVSVGKTFVYPIAGYSKKIKSLDELKDGSQVAVPNDPTNLGRSLLLLQKVGLIKLKDGVGLLPTSLDIVENPKNLKIVELEAPQLPRSLDDAQIALAVINTTYASQIGLTPAKDGIFVEDKDSPYVNLIVTREDNKDAENVKKFVQAYQSDEVYEAANKVFNGGAVKGWLEHHHHHH | soluble
9 | SSWIPFKIGQPKKQIVSKTVERDFEREYGKLQQLEEQTKRLQKDMKKSTDADLAMSKSAVKISLDLLSNPLCEQDQDFLRMVTALDTAMKRMDAFNQEKVNQIQKTVIEPLKKFGSIFPSLNMAVKRREQALQDYGRLQAKVEKYEEKEKTGPVLAKLHQAREELRPVREDFEAKNKQLLDEMPRFYNSRLDYFQPSFESLIRAQVIYYSEMHKIFGDLTQQLDQPGHSDEHRERENETKLSELRALSIVADD | soluble
10 | MEKKTNCIQNEEQKKEKELIAEKAAKAGFVNRLYVNIGQKVGVVELTKLEPRFERNIDKLTSYHNLIYKIVNVIELQVQFMPKAMAKKAVLCAPGENPWEVLGGWLNYLGKNQFDGQHSKMLEKYSSACGRIAQKEIQVQKRTRSHLIKKMRLYTGEESEILNSNVENLNNLLHAIDDSRHHVKSSKTTKEVKAKGETYRKAINAFNETANEVQALIDEVAMVVPLHENEFLKFSREASVYHDTVHNSLSEVIFRLGYHVKKH | not soluble
11 | MGSDKIHHHHHHMNTKNYFIIGGTGGIGKAMVEQLLQTATNEHASTGMNNDTGIRVFATYHKSIPDFEADNLYWIAMDICDEQSIKHAVDTIKQQTTHIDWVINCAGLLHTKAQQPEKALQQLESEFFLQNMQVNALASLLIAKHIKPLLAKAERSADKPAIFATISARVGSISDNQLGGWYSYRMSKAALNMGMKNLSIEWSRSLKDVCVVVMQPGTVNTQLSAPFQGNVADGQLFSPTYSAECLLEVLSKMSAAQSGSFVDWAGESIPW | not soluble
12 | MRKVKTDNSDLIEYVNTVKELKNHIPIEEYRNEYRKLRSDDIPLVKAQKFKSAHTEVRRLEKKRESLIEYFIDELNPISSSKANTSARSTGNLDLFNERVLYRKAISEKSDEEIVALVIKQRTEAAVEFQRSIEQSLEQLSRISSEFEPSNQKRRKMSL | soluble
13 | MLSEFLHNKSDAMVNQTHEFLLEMTGVSKEFPGVKALDKVNLKVRPHSVHALMGENGAGKSTLLKCLFGIYEKDEGDIIFLGQHVNFSSSKEALESGVSMVHQELNQVKQCSVMDNIWLGRYPTKGFFVDHDKMYRDTKAIFAELDIDIDPKVKVATLSVSQMQMLEIAKAFSYDAKVVIMDEPTSSLTEKEVNHLFTIIKKLKEKGCGVVYISHKMEEIFSICDEITILRDGQWVDTRPLKGLDMDKIISMMVGRELTQRFPEKSNEPKNVILEVKNLTALNQPSIQDISFELRAGEILGVAGLVGSRRTDIVETIFGVRERSAGHILLHGREMKNHDAHEAIRNGFALVTEERRSTGIYSNLDITFNSLVANVDEYKTPYGLLSDKKMKSDTQWVIDSMRVKTPSHQTHIGSLSGGNQQKVIIGRWLLTQPEILMLDEPTRGIDVGAKYEIYQLILELAKKDKGIIIISSEMPELLGITDRIMVMSNGRNAGIVNTKQTSQNEILELASRYL | not soluble
14 | MTVTAPNALNFECETGNYHTFCPISCVAWLYQKIEDSFFLVIGTKTCGYFLQNAMGVMIFAEPRYAMAELEEGDISAQLNDYEELKRLCLEIKRDRNPSVIVWIGTCTTEIIKMDLEGLAPKLEAEIGIPIVVARANGLDYAFTQGEDTVLAAMAARCPTSTAISDPEERNPIQRLLNFGKKKEEVQAQSSQYHPHPPLVLFGSLPDPVVTQLTLELKKQGIKVSGWLPAKRYTELPVIDEGYYVAGVNPFLSRTATTLIRRRKCQLITAPFPIGPDGTRTWIEQICATFGIQPQGLAEREAETWQKLSDYLELVRGKSVFFMGDNLLEISLARFLIRCGMRVLEIGIPYMDKRYQAAELALLSQTCAEMGHPLPTIVEKPDNYNQLQRIKALQPDLVITGMAHANPLEARGISTKWSVEFTFAQIHGFGNARDILELVTRPLRRNQALAGLGWQKLVAH | soluble
15 | MKPLSWSEAFGKGAGRIQASTIRELLKLTQRPGILSFAGGLPAPELFPKEEAAEAAARILREKGEVALQYSPTEGYAPLRAFVAEWIGVRPEEVLITTGSQQALDLVGKVFLDEGSPVLLEAPSYMGAIQAFRLQGPRFLTVPAGEEGPDLDALEEVLKRERPRFLYLIPSFQNPTGGLTPLPARKRLLQMVMERGLVVVEDDAYRELYFGEARLPSLFELAREAGYPGVIYLGSFSKVLSPGLRVAFAVAHPEALQKLVQAKQGADLHTPMLNQMLVHELLKEGFSERLERVRRVYREKAQAMLHALDREVPKEVRYTRPKGGMFVWMELPKGLSAEGLFRRALEENVAFVPGGPFFANGGGENTLRLSYATLDREGIAEGVRRLGRALKGLLALV | soluble
16 | MGSDKIHHHHHHMGLLLKTAASPFACSSGMQNFIANPELESYLRLNRAACGEWTLALQDLLGCSGLACDLSRPKEEVGSLSALGVGGGLVAALSVRQGLELQHCRLESVLLVFPVQGHCELLSDGAAANTLLPFQLILPGQTFSLRVTAESRLLLLMPAEQPQAVQLAAATSEAITLSIQRFLYQAGFLQDHHQGCQAAETVLREVREILAGSSGVTKVTEAVPEPDRRLLKAISKIRTEPDWPFDLQELSSHAGVSERNLYYLMKRQTGMTPYRYYQRCRLIRVRRRLVDCQCAVPHISRYAGDEGFSHFGRFAALYREHFGELPSETVQWRRRLQAQELLAPALS | not soluble
17 | MRGSHHHHHHGSDLGKKLLEAARAGQDDEVRILMANGADVNAEDTYGDTPLHLAARVGHLEIVEVLLKNGADVNALDFSGSTPLHLAAKRGHLEIVEVLLKYGADVNADDTIGSTPLHLAADTGHLEIVEVLLKYGADVNAQDKFGKTAFDISIDNGNEDLAEILQ | soluble
18 | MGSDKIHHHHHHMEVASATNNPVQNPAGALAAPGNDAASLKNEFMTLMIAQIKNQDPTKPLNSAEYISQLAQFSQVESLEGMRKNQSNQMIMMENLGIVQSASLIGKNAMVPVSEFKLDGETVEGKVYLENAVEALDIEIVNSEGQVVHTMQLGAQAVGDIRFAIDPDELGLEKGQYEIKAKATLGENSLVAPTYIKAPIERIHFSSASGMMMAEMGHGVGVISVLNISEVS | not soluble
19 | MAKNSKFDRVQVVDKAVDLYWEKGFHGTSMRNLQEVIDMRPGSIYATFGSKEGLFKESLQRYTQSGILHLEQCCHEQKSPLLGLKSFIHNIVVEKRSSAPSGMCMLVKTVTELTNENEELLTEAKRSLKIMESEFEKVLRQAQEIGEIEKEKDTKQLAQFVQVQIAGLRTYARTVDSDLPLQNMLDNMFSHYPF | not soluble
20 | MIQRDIEYSGQYSKDVKLAQKRHKDMNKLKYLMTLLINNTLPLPAVYKDHPLQGSWKGYRDAHVEPDWILIYKLTDKLLRFERTGTHAALFGLEHHHHHH | soluble
21 | MRGKNTGKQRRSIKKQQTVAELKHLFDAPGRGSVMPRQVLWGDLCLTAFPHELNSESTAPMHRYILLSIIRIPLPLTLESQRSLTLVKRCFRRSSVLSSTLYSRLGSTTF | not soluble
22 | MGSSHHHHHHSSGLVPRGSHMVNKRMSMVVSGLTPEEFMLVYKFARKHHITLTNLITEETTHVVMKTDAEFVCERTLKYFLGIAGGKWVVSYFWVTQSIKERKMLNEHDFEVRGDVVNGRNHQGPKRARESQDRKIFRGLEICCYGPFTNMPTDQLEWMVQLCGASVVKELSSFTLGTGVHPIVVVQPDAWTEDNGFHAIGQMCEAPVVTREWVLDSVALYQCQELDTYLIPQIP | soluble
23 | MSDTLLLTVLLRHDQSKNLDEIQARMKAMDWWERFPGEGVEIVSWTVAMGLGQIVTLRLPPALLPRVNVELERSAWGVFRTECYPTYDFVPVRETIRERVRTGGQ | not soluble
